Earlier results as cited in article PMC4414177, “A novel orally active water-soluble inhibitor of human glutathione transferase exerts a potent and selective antitumor activity against human melanoma xenografts” (Oncotarget, 2015).
pKd: −log10 of the molar value.

Molecular target: GSTP1-1 (Homo sapiens) (UniProt P09211)
Test: ELISA

Chain of GSTP1-1 (Homo sapiens) (P09211 2-210): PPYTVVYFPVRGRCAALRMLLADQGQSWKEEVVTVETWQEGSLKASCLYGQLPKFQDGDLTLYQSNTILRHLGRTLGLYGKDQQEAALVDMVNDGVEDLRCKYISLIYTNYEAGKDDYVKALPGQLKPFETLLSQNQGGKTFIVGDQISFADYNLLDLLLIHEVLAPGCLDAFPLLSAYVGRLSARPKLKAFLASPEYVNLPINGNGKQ
Chain of JNK1α2 (P45983 whole entry): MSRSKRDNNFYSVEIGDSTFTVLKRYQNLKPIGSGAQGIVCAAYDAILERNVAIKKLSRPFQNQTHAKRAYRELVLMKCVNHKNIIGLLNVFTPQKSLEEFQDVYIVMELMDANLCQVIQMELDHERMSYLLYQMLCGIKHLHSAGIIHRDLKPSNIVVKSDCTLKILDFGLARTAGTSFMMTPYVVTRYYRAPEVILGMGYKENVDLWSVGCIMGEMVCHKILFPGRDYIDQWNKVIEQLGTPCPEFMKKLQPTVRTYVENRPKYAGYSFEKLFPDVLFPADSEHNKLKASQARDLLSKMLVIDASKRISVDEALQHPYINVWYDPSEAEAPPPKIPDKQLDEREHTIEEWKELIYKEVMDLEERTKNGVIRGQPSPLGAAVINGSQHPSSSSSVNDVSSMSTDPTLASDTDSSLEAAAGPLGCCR
Chain of TRAF2 CTD (Q12933 310-501): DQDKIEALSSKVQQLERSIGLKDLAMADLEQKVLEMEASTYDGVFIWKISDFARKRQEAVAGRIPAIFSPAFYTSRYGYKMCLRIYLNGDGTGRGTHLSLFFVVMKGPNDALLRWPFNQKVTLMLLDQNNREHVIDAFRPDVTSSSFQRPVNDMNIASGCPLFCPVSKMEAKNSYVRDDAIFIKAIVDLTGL

Row | pKd | Substance
1 | < 5.00 | JNK1α2 (from UniProt P45983)
2 | < 5.30 | TRAF2 CTD (from UniProt Q12933)
